According to the supplement of paper PMC7877785:
± gives the uncertainty stated by the source.

Assay: self-splicing fitness, log relative to wild type (ln ratio); higher = more splicing; Tetrahymena group I intron in knt gene, E. coli kanamycin selection, DiMSum; sequences stand for … in CUCUCU…GGAGGGAAAAGUUAUCAGGCAUGCACCUGGUAGCUAGUCUUUAAACCAAUAGAUUGCAUCGGUUUAAAAGGCAAGACCGUCAAAUUGCGGGAAAGGGGUCAACAGCCGUUCAGUACCAAGUCUCAGGGGAAACUUUGAGAUGGCCUUGCAAAGGGUAUGGUAAUAAGCUGACGGACAUGGUCCUAACCACGCAGCCAAGUCCUAAGUCAACAGAUCUUCUGUUGAUAUGGAUGCAGUUCACAGACUAAAUGUCGGUCGGGGAAGAUGUAUUCUUCUCAUAAGAUAUAGUCGGACCUCUCCUUAAUGGGAGCUAGCGGAUGAAGUGAUGCAACACUGGAGCCGCUGGGAACUAAUUUGUAUGCGAAAGUAUAUUGAUUAGUUUUGGAGUACUCGUGGUCG
In short: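 A randomised library covering all eight P1ex-region intron nucleotides was built with the intron in the knt kanamycin-resistance gene on pET-22b(+) and held in E. coli BL21(DE3). Cells were grown overnight at 37°C or 30°C on LB agar, with or without 25 μg/mL kanamycin, plus 100 μg/mL carbenicillin, 50 μM IPTG and 0.2% rhamnose, and pooled colonies were amplicon-sequenced on an Illumina HiSeq 2500. DiMSum fitness is the error-weighted combination of wild-type-normalised replicate fold changes, kanamycin versus none.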

AUGAAGCAAUAUUACGUGAG
self-splicing fitness (ln) (30 °C): -1.27 ± 0.083
self-splicing fitness (ln) (37 °C): -0.0834 ± 0.12

AUGAAGCAAUAUUACGUUGU
self-splicing fitness (ln) (30 °C): -1.99 ± 0.12
self-splicing fitness (ln) (37 °C): -0.91 ± 0.12

AUGAAGCAAUAUUACGUUUG
self-splicing fitness (ln) (30 °C): -2.28 ± 0.11
self-splicing fitness (ln) (37 °C): -1.56 ± 0.13

AUGCAGCAAUAUUACGAAAU
self-splicing fitness (ln) (30 °C): -2.02 ± 0.13
self-splicing fitness (ln) (37 °C): -0.358 ± 0.11

AUGCAGCAAUAUUACGAAGG
self-splicing fitness (ln) (30 °C): -3.78 ± 0.37
self-splicing fitness (ln) (37 °C): -2.89 ± 0.41

AUGCAGCAAUAUUACGAAUC
self-splicing fitness (ln) (30 °C): -3.82 ± 0.24
self-splicing fitness (ln) (37 °C): -2.87 ± 0.2

AUGCAGCAAUAUUACGACAC
self-splicing fitness (ln) (30 °C): -0.537 ± 0.077
self-splicing fitness (ln) (37 °C): 0.312 ± 0.11

AUGCAGCAAUAUUACGACCU
self-splicing fitness (ln) (30 °C): 0.132 ± 0.082
self-splicing fitness (ln) (37 °C): 0.168 ± 0.087

AUGCAGCAAUAUUACGAGGG
self-splicing fitness (ln) (30 °C): -2.51 ± 0.15
self-splicing fitness (ln) (37 °C): -3.09 ± 0.26

AUGCAGCAAUAUUACGAUUA
self-splicing fitness (ln) (30 °C): -1.32 ± 0.1
self-splicing fitness (ln) (37 °C): -0.923 ± 0.1

AUGCAGCAAUAUUACGCACG
self-splicing fitness (ln) (30 °C): -1.46 ± 0.091
self-splicing fitness (ln) (37 °C): -0.13 ± 0.1

AUGCAGCAAUAUUACGCAGG
self-splicing fitness (ln) (30 °C): -3.71 ± 0.14
self-splicing fitness (ln) (37 °C): -2.13 ± 0.12

AUGCAGCAAUAUUACGCGAU
self-splicing fitness (ln) (30 °C): -3.67 ± 0.3
self-splicing fitness (ln) (37 °C): -1.92 ± 0.25

AUGCAGCAAUAUUACGCUAG
self-splicing fitness (ln) (30 °C): -3.93 ± 0.26
self-splicing fitness (ln) (37 °C): -2.49 ± 0.23

AUGCAGCAAUAUUACGGACA
self-splicing fitness (ln) (30 °C): -1.13 ± 0.15
self-splicing fitness (ln) (37 °C): -0.421 ± 0.13

AUGCAGCAAUAUUACGGACG
self-splicing fitness (ln) (30 °C): -1.57 ± 0.12
self-splicing fitness (ln) (37 °C): -0.811 ± 0.13

AUGCAGCAAUAUUACGGCAU
self-splicing fitness (ln) (30 °C): -3.9 ± 0.19
self-splicing fitness (ln) (37 °C): -2.61 ± 0.15

AUGCAGCAAUAUUACGGUAA
self-splicing fitness (ln) (30 °C): -0.979 ± 0.11
self-splicing fitness (ln) (37 °C): -0.791 ± 0.1

AUGCAGCAAUAUUACGGUUC
self-splicing fitness (ln) (30 °C): -2.28 ± 0.088
self-splicing fitness (ln) (37 °C): -1.83 ± 0.13

AUGCAGCAAUAUUACGGUUG
self-splicing fitness (ln) (30 °C): -4.33 ± 0.23
self-splicing fitness (ln) (37 °C): -2.21 ± 0.19

AUGCAGCAAUAUUACGGUUU
self-splicing fitness (ln) (30 °C): -0.723 ± 0.065
self-splicing fitness (ln) (37 °C): -0.427 ± 0.075

AUGCAGCAAUAUUACGUAUC
self-splicing fitness (ln) (30 °C): -4.58 ± 0.41
self-splicing fitness (ln) (37 °C): -2.76 ± 0.4

AUGCAGCAAUAUUACGUCAU
self-splicing fitness (ln) (30 °C): -3.12 ± 0.14
self-splicing fitness (ln) (37 °C): -2.26 ± 0.12

AUGCAGCAAUAUUACGUCCG
self-splicing fitness (ln) (30 °C): -2.16 ± 0.11
self-splicing fitness (ln) (37 °C): -1.27 ± 0.14

AUGCAGCAAUAUUACGUUCA
self-splicing fitness (ln) (30 °C): -1.16 ± 0.11
self-splicing fitness (ln) (37 °C): -0.74 ± 0.12

AUGCAGCAAUAUUACGUUGU
self-splicing fitness (ln) (30 °C): -4.08 ± 0.16
self-splicing fitness (ln) (37 °C): -3.03 ± 0.15

AUGGAGCAAUAUUACGAAGA
self-splicing fitness (ln) (37 °C): -1.17 ± 0.33

AUGGAGCAAUAUUACGAAGG
self-splicing fitness (ln) (30 °C): -3 ± 0.23
self-splicing fitness (ln) (37 °C): -2.29 ± 0.34

AUGGAGCAAUAUUACGAAUC
self-splicing fitness (ln) (30 °C): -3.53 ± 0.32
self-splicing fitness (ln) (37 °C): -1.97 ± 0.36

AUGGAGCAAUAUUACGCCGC
self-splicing fitness (ln) (30 °C): -1.29 ± 0.44

AUGGAGCAAUAUUACGCGCA
self-splicing fitness (ln) (30 °C): -1.66 ± 0.28
self-splicing fitness (ln) (37 °C): -0.77 ± 0.23

AUGGAGCAAUAUUACGCUCU
self-splicing fitness (ln) (30 °C): -3.56 ± 0.49
self-splicing fitness (ln) (37 °C): -1.45 ± 0.41

AUGGAGCAAUAUUACGCUGG
self-splicing fitness (ln) (37 °C): -1.53 ± 0.2

AUGGAGCAAUAUUACGGAUA
self-splicing fitness (ln) (30 °C): -2.46 ± 0.17
self-splicing fitness (ln) (37 °C): -2.21 ± 0.28

AUGGAGCAAUAUUACGGCGC
self-splicing fitness (ln) (30 °C): -2.45 ± 0.34
self-splicing fitness (ln) (37 °C): -0.677 ± 0.41

AUGGAGCAAUAUUACGGCGU
self-splicing fitness (ln) (30 °C): 0.125 ± 0.14
self-splicing fitness (ln) (37 °C): 0.224 ± 0.14

AUGGAGCAAUAUUACGGCUG
self-splicing fitness (ln) (30 °C): -2.48 ± 0.17
self-splicing fitness (ln) (37 °C): -1.84 ± 0.34

AUGGAGCAAUAUUACGGGAG
self-splicing fitness (ln) (30 °C): -2.75 ± 0.18
self-splicing fitness (ln) (37 °C): -2.82 ± 0.31

AUGGAGCAAUAUUACGGGGC
self-splicing fitness (ln) (30 °C): -3.13 ± 0.18
self-splicing fitness (ln) (37 °C): -2.14 ± 0.19
